Legend:
Experiment in all cases: two-hybrid library CCNG1;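 note: natural log of median RNA to DNA barcode read ratio; higher means stronger binding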
[1] = target: T1, O5-bS
T1 chain: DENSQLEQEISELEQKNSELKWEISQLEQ

[2] = target: T2, O4-bS
T2 chain: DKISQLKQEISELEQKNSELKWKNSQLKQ

[3] = target: T3, O3-bS
T3 chain: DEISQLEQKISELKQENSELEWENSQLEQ

[4] = target: T4, O7-bS
T4 chain: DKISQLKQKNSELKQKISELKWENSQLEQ

[5] = target: T5, P6A-bA
T5 chain: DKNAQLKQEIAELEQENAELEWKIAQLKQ

[6] = target: T6, O8-bS
T6 chain: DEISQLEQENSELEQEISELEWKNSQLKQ

[7] = target: T7, O6-bS
T7 chain: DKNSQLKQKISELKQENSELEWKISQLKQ

[8] = target: T8, O9-bS
T8 chain: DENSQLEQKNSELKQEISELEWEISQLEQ

[9] = target: T9, 4H3175-bN
T9 chain: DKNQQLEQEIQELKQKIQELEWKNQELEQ

[10] = target: T10, 4H3497-bN
T10 chain: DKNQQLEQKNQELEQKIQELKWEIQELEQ

[11] = target: T11, 4H906-bN
T11 chain: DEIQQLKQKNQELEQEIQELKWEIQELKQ

[12] = target: T12, 4H3414-bN
T12 chain: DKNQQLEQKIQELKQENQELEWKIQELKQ

[13] = target: T13, 4H3628-bN
T13 chain: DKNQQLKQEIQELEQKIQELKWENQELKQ

[14] = target: T14, 4H3277-bN
T14 chain: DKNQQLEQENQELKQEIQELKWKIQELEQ

[15] = target: T15, 4H3298-bN
T15 chain: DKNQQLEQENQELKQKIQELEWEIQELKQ

[16] = target: T16, 4H3926-bN
T16 chain: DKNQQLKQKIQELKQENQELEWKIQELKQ

[17] = target: T17, 4H3462-bN
T17 chain: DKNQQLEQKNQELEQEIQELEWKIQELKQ

[18] = target: T18, 4H626-bN
T18 chain: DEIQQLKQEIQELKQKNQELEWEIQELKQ

[19] = target: T19, 4H591-bN
T19 chain: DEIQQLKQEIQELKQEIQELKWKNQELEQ

[20] = target: T20, 4H3613-bN
T20 chain: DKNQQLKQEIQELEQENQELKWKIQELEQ

Binder DEISQLEQKISELKQENSELEWENSQLEQ [O3-bS] has an interaction score [1] of 0.221, an interaction score [2] of 2.28 and an interaction score [3] of -1.46. For the same binder, the interaction score [4] was -0.235, the interaction score [5] was -1.14 and the interaction score [6] was -0.691. The interaction score [7] was -0.838 and the interaction score [8] was -1.14.

With DKNQQLEQEIQELKQKIQELEWKNQELEQ [4H3175-bN] the interaction score [9] was 0.818, the interaction score [10] was -0.279 and the interaction score [11] was -1.02. The interaction score [12] was -0.633, the interaction score [13] was -0.511 and the interaction score [14] was 0.658. The interaction score [15] was -0.312, the interaction score [16] was -0.72 and the interaction score [17] was -0.773. It also gave an interaction score [18] of -0.521, an interaction score [19] of -0.0622 and an interaction score [20] of -0.132.
